In this test the target is Abi1, endogenous in mouse fibroblasts (mouse (endogenous in MEFs)) (UniProt Q8CBW3). Nature of the test: co-IP.
UniProt Q8CBW3, sequence (Q8CBW3 whole entry): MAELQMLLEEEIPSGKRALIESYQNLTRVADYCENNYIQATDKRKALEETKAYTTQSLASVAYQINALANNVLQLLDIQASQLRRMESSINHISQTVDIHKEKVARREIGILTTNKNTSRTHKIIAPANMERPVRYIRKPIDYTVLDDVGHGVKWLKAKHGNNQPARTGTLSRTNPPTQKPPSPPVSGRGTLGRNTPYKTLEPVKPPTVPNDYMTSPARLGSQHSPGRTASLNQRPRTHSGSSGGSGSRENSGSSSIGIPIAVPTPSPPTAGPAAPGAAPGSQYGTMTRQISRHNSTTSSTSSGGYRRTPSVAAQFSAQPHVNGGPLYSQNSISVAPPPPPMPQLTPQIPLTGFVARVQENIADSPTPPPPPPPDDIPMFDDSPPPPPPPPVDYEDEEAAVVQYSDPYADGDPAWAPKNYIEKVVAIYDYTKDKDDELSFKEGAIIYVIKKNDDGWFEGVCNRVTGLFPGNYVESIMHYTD

For “p85 (regulatory subunit of class I PI3K), endogenous in mouse fibroblasts (from UniProt P26450 1-724) (natural protein)”, the percent of total p85 associated with Abi1 immunoprecipitates is 1%.
